Test results from patent publication US20260139026A1 (published 2026).

How the values were obtained:
[1] = target: T1, PIK3CA H1047L peptide on HLA-A*03:01 (human); assay: multimer staining
T1 peptide: ALHGGWTTK

[2] = target: T2, PIK3CA H1047L (8-mer) peptide on HLA-A*03:01 (human); assay: cytokine release
T2 peptide: LHGGWTTK

[3] = target: T3, PIK3CA H1047L (10-mer) peptide on HLA-A*03:01 (human); assay: cytokine release
T3 peptide: DALHGGWTTK

Measured: binding result

B1: 1022T8 (TCR, V domains shown)
Valpha: GDSVTQMEGPVTLSEEAFLTINCTYTATGYPSLFWYVQYPGEGLQLLLKATKADDKGSNKGFEATYRKETTSFHLEKGSVQVSDSAVYFCALTVGGSYIPTFGRGTSLIVHP
Vbeta: DTEVTQTPKHLVMGMTNKKSLKCEQHMGHRAMYWYKQKAKKPPELMFVYSYEKLSINESVPSRFSPECPNSSLLNLHLHALQPEDSALYLCASSQGGQGWRETQYFGPGTRLLVL
recognises: all assays above
